B1: Calcium-binding protein 39 (Homo sapiens), Q9Y376 (parent)
chain: MPFPFGKSHKSPADIVKNLKESMAVLEKQDISDKKAEKATEEVSKNLVAMKEILYGTNEKEPQTEAVAQLAQELYNSGLLSTLVADLQLIDFEGKKDVAQIFNNILRRQIGTRTPTVEYICTQQNILFMLLKGYESPEIALNCGIMLRECIRHEPLAKIILWSEQFYDFFRYVEMSTFDIASDAFATFKDLLTRHKLLSAEFLEQHYDRFFSEYEKLLHSENYVTKRQSLKLLGELLLDRHNFTIMTKYISKPENLKLMMNLLRDKSRNIQFEAFHVFKVFVANPNKTQPILDILLKNQAKLIEFLSKFQNDRTEDEQFNDEKTYLVKQIRDLKRPAQQEA

Variants of: B1
Conditions: with STK26, Q9P289-1
STK26, Q9P289-1, sequence (Q9P289 whole entry, looked up): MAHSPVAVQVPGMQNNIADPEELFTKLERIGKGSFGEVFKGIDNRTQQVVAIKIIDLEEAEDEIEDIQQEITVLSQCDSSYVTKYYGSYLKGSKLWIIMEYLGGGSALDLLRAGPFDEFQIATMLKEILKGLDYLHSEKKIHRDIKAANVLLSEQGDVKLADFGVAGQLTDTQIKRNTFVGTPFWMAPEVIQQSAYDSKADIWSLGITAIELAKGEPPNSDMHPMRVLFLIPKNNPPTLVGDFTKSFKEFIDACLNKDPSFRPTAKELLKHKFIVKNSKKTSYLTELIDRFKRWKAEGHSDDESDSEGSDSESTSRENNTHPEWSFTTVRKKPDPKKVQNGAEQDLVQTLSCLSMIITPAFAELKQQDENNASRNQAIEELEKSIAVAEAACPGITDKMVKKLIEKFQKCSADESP
MPFPFGKSHKSPADIVKNLKESMAVLEKQDISDKKAEKATEEVSKNLVAMKEILYGTNEKEPQTEAVAQLAQELYNSGLLSTLVADLQLIDFEGKKDVAQIFNNILRRQIGTRTPTVEYICTQQNILFMLLKGYESPEIALNCGIMLRECIRHEPLAKIILWSEQFYDFFRYVEMSTFDIASDAFATFKDLLTRHKLLSAEFLEQHYDRFFSEYEKLLHSENYVTKAQSLKLLGELLLDRHNFTIMTKYISKPENLKLMMNLLRDKSRNIQFEAFHVFKVFVANPNKTQPILDILLKNQAKLIEFLSKFQNDRTEDEQFNDEKTYLVKQIRDLKRPAQQEA [R227A] was tested, and the “effect of a mutation on the interaction” value was “decreasing interaction strength”.
MPFPFGKSHKSPADIVKNLKESMAVLEKQDISDKKAEKATEEVSKNLVAMKEILYGTNEKEPQTEAVAQLAQELYNSGLLSTLVADLQLIDFEGKKDVAQIFNNILRRQIGTRTPTVEYICTQQNILFMLLKGYESPEIALNCGIMLRECIRHEPLAKIILWSEQFYDFFRYVEMSTEDIASDAFATFKDLLTRHKLLSAEFLEQHYDRFFSEYEKLLHSENYVTKRQSLKLLGELLLDRHNFTIMTKYISKPENLKLMMNLLRDKSRNIQFEAFHVFKVFVANPNKTQPILDILLKNQAKLIEFLSKFQNDRTEDEQFNDEKTYLVKQIRDLKRPAQQEA [F178E] was tested, and the “effect of a mutation on the interaction” value was “decreasing interaction strength”.
MPFPFGKSHKSPADIVKNLKESMAVLEKQDISDKKAEKATEEVSKNLVAMKEILYGTNEKEPQTEAVAQLAQELYNSGLLSTLVADLQLIDFEGKKDVAQIFNNILRRQIGTRTPTVEYICTQQNILFMLLKGYESPEIALNCGIMLRECIRHEPLAKIILWSEQFYDFFRYVEMSTFDIASDAFATFKDLLTRHKLLSAEFLEQHYDRFFSEYEKLLHSENYVTKRQSLKLLGELLLDRHNFTIMTKYISKPENLKLMENLLRDKSRNIQFEAFHVFKVFVANPNKTQPILDILLKNQAKLIEFLSKFQNDRTEDEQFNDEKTYLVKQIRDLKRPAQQEA [M260E] was tested, and the “effect of a mutation on the interaction” value was “decreasing interaction strength”.
For MPFPFGKSHKSPADIVKNLKESMAVLEKQDISDKKAEKATEEVSKNLVAMKEILYGTNEKEPQTEAVAQLAQELYNSGLLSTLVADLQLIDFEGKKDVAQIFNNILRRQIGTRTPTVEYICTQQNILFMLLKGYESPEIALNCGIMLRECIRHEPLAKIILWSEQFYDFFRYVEMSTFDIASDAFATFKDLLTRHKLLSAEFLEQHYDRFFSEYEKLLHSENAVTKRQSLKLLGELLLDRHNFTIMTKYISKPENLKLMMNLLRDKSRNIQFEAFHVFKVFVANPNKTQPILDILLKNQAKLIEFLSKFQNDRTEDEQFNDEKTYLVKQIRDLKRPAQQEA [Y223A], the “effect of a mutation on the interaction” value was “decreasing interaction strength”.
In the case of MPFPFGKSHKSPADIVKNLKESMAVLEKQDISDKKAEKATEEVSKNLVAMKEILYGTNEKEPQTEAVAQLAQELYNSGLLSTLVADLQLIDFEGKKDVAQIFNNILRRQIGTRTPTVEYICTQQNILFMLLKGYESPEIALNCGIMLRECIRHEPLAKIILWSEQFYDFFRYVEMSTEDIASDAFATFKDLLTRHKLLSAEFLEQHYDRFFSEYEKLLHSENYETKRQSLKLLGELLLDRHNFTIMTKYISKPENLKLMMNLLRDKSRNIQFEAFHVFKVFVANPNKTQPILDILLKNQAKLIEFLSKFQNDRTEDEQFNDEKTYLVKQIRDLKRPAQQEA [F178E;V224E], the “effect of a mutation on the interaction” value is reported as “decreasing interaction strength”.

Variants of: B1
Conditions: with STK26, Q9P289-1
Remark: another data set of the same source
In the case of MPFPFGKSHKSPADIVKNLKESMAVLEKQDISDKKAEKATEEVSKNLVAMKEILYGTNEKEPQTEAVAQLAQELYNSGLLSTLVADLQLIDFEGKKDVAQIFNNILRRQIGTRTPTVEYICTQQNILFMLLKGYESPEIALNCGIMLRECIRHEPLAKIILWSEQFYDFFRYVEMSTFDIASDAFATFKDLLTRHKLLSAEFLEQHYDRFFSEYEKLLHSENYVTKRQSLKLLGELLLDRHNFTIMTKYISKPENLKLMENLLRDKSRNIQFEAFHVFKVFVANPNKTQPILDILLKNQAKLIEFLSKFQNDRTEDEQFNDEKTYLVKQIRDLKRPAQQEA [M260E], the “effect of a mutation on the interaction” value is reported as “disrupting interaction strength”.
For MPFPFGKSHKSPADIVKNLKESMAVLEKQDISDKKAEKATEEVSKNLVAMKEILYGTNEKEPQTEAVAQLAQELYNSGLLSTLVADLQLIDFEGKKDVAQIFNNILRRQIGTRTPTVEYICTQQNILFMLLKGYESPEIALNCGIMLRECIRHEPLAKIILWSEQFYDFFRYVEMSTEDIASDAFATFKDLLTRHKLLSAEFLEQHYDRFFSEYEKLLHSENYETKRQSLKLLGELLLDRHNFTIMTKYISKPENLKLMMNLLRDKSRNIQFEAFHVFKVFVANPNKTQPILDILLKNQAKLIEFLSKFQNDRTEDEQFNDEKTYLVKQIRDLKRPAQQEA [F178E;V224E], the “effect of a mutation on the interaction” value was “disrupting interaction strength”.

Reference: IntAct's records for PubMed 23434407
